# Publication PMC3734085 (The Journal of Cell Biology, 2013)
# Numbering of substitutions follows the chain as printed. Names and notes keep the numbering of the source.
# T1: Snc2p-M2-His6 (R75E R79E K82E) reconstituted into liposomes (S. cerevisiae, UniProt P33328 1-115, R75E | R79E | K82E)
# T1 sequence: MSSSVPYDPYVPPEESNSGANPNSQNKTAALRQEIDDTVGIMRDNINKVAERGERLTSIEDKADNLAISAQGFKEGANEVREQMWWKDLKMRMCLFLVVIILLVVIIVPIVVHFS
# B1: His-MBP-Sec9ct (416–651 aa) (domain or fragment)
# chain: ARQQQEEDEAVDEIKQEIKFTKQSSVASTRNTLKMAQDAERAGMNTLGMLGHQSEQLNNVEGNLDLMKVQNKVADEKVAELKKLNRSILAVHVSNPFNSKRRRREREEQLKNRKIEEKLMREQTSQQLSQSTQRIEGAMNANNNISEVRERYQRKNVLEKAKRYQFENDEEDDEMELEIDRNLDQIQQVSNRLKKMALTTGKELDSQQKRLNNIEESTDDLDINLHMNTNRLAGIR
# B2: GST-Snc2p (cytosolic domain of Snc2p, 1–92 aa, fused to GST) (domain or fragment)
# chain: MSSSVPYDPYVPPEESNSGANPNSQNKTAALRQEIDDTVGIMRDNINKVAERGERLTSIEDKADNLAISAQGFKRGANRVRKQMWWKDLKMR
# B3: GST-Snc2p E51A E54A (M5) (domain or fragment)
# chain: B2 chain with E51A, E54A
# B4: GST-Snc2p E51R E54R (M6) (domain or fragment)
# chain: B2 chain with E51R, E54R
# B5: GST-Snc2p R75A (domain or fragment)
# chain: B2 chain with R75A
# B6: GST-Snc2p E60K D61R D64R (M4) (domain or fragment)
# chain: B2 chain with E60K, D61R, D64R
# B7: GST-Snc2p K82A (domain or fragment)
# chain: B2 chain with K82A
# B8: GST-Snc2p E60A D61A D64A (M3) (domain or fragment)
# chain: B2 chain with E60A, D61A, D64A
# B9: His-tagged Sec6p (pET46-Sec6) (natural protein)
# chain: MSSDPLQQVCDLIKGDLSLERVRDIKEQLLKEKSVVEYQLNKESDKYYGEVEESLKLLNLSKNSVTSIKQQINEVNKLGNDNRFAINRYDILFRATKLYETVNTTSSIYDRIYNFVALMEHIERLLVAELAEDALETGCPHLLEIHFLLTSARDFQEQVVVMAKEATEDAQRTVMKLFSRLSGIISKFDKLLDGLTYDIVEMARAEQISLAIRLFKIYDLEEREDLRIEAIRNIIKKKEIEIEKSSIKKLPNSKNTARLQDETPKVIEYPTNKGLYQEIMSGTISTRTAPRGYKHFLINGINNSISEMFGEMREKYVGDQKFDVLDNMDWIFNELIIVKEHIANCCPPHWNIFEVYFDQYYKELHSLITDLVESEPETIIILDILAFDKTFQDTLKQDFGFTKSEVKSVIGDKEKETLFKDYLNLIVVKMTEWIGNLEKAEFDVFLERSTPPHSDSDGLLFLDGTKTCFQMFTQQVEVAAGTNQAKILVGVVERFSDLLTKRQKNWISKISEEIKKQINYNHKYDIDPESITPEDECPGGLVEYLIAVSNDQMKAADYAVAISSKYGKLVSKVYEKQITNHLEGTLDGFAEVAQCSSLGLITLMFDDLRKPYQEIFSKTWYMGSQAQQIADTLDEYLLDIKPQMNSVLFVNFIDNVIGETIIKFLTALSFEHSFKNKNNKFLEAMKRDFEIFYQLFVKVLDGNESKDTLITQNFTVMEFFMDLSCEPIDSILDIWQKYLEVYWDSRIDLLVGILKCRKDVSSSERKKIVQQATEMLHEYRRNMEANGVDREPTLMRRFVLEFEKQ
# B10: GST-Snc2p fragment (28–92 aa) (domain or fragment)
# chain: TAALRQEIDDTVGIMRDNINKVAERGERLTSIEDKADNLAISAQGFKRGANRVRKQMWWKDLKMR
# B11: Snc2p-His6, full-length Snc2p reconstituted into liposomes (natural protein)
# chain: T1 sequence with E75R, E79R, E82K
# Experiments:
# [1] = target: B9; assay: pull-down
# [2] = target: T1, Snc2p-M2-His6 (R75E R79E K82E) …; assay: […], pH 7.4, 0.5 µg/µl BSA
# [3] = target: B9; assay: […], pH 7.4, 0.5 µg/µl BSA
binder,measurement,setting,value
B1,binding result,[1],binds
B2,Kd,[1],13 ± 6 µM
B3,binding result,[1],binds
B4,binding result,[1],binds
B5,binding result,[1],binds
B6,binding result,[1],binds
B7,binding result,[1],binds
B8,binding result,[1],binds
GERLTSIEDKADNLAISAQGFKRGANRVRKQMWWKDLKMR (domain or fragment) [GST-Snc2p fragment (53–92 aa)],Kd,[1],18 µM
B9,fold reduction in binding against wild-type Snc2p liposomes,[2],≥ 2 fold
B10,binding result,[1],binds
B11,binding result,[3],binds
